Switch fluorescence ratio data for 78 sequences are collected here from the supplement of paper PMC10126150.

This data set deals with ATP. The data set can be described thus: switch fluorescence ratio, 500 uM ATP over buffer (Cy3 cluster intensity, sum of 5 cycles each) (fold (ratio)); higher = stronger signal-on switching upon ATP binding; sequences stand for … in TCGTCGGCAGCGTCAGATGTGTATAAGAGACAGTTTTTTTTTTTTTTTTTTTTTTTTT…TC. Conditions: aptamer strand: ATP DNA aptamer (quencher-CACCTGGGGGAGTATTGCGGAGGAAGG + anchor), 100 nM annealed; ATP concentration: 500 uM. Summed up: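 The fluorescence ratio divides summed target-cycle Cy3 intensity by summed buffer-cycle Cy3 intensity for each cluster and is averaged per switch-domain sequence. Cy3-labelled switching-strand clusters on a modified Illumina MiSeq flow-cell were annealed to 100 nM quencher-labelled ATP aptamer, then imaged in selection buffer and again after 15 min with 500 uM ATP at 22 °C. Five such cycles were run, with NaOH stripping and re-annealing between them, and clusters outside 100-1000 RFU were excluded.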

± gives the standard deviation of the averaged measurements.
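Further: ATP exposure 15 min at 22 °C before imaging.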

As for GGCCGGGGGC, the switch fluorescence ratio was 0.994 ± 0.047. Next, CATGAGACCG: 1.03 ± 0.016; AAGAGGTTTT: 1.01 ± 0.02. The figure for TAGTTAGGCG is 0.959 ± 0.028. Next, GATTTTTATG: 0.977 ± 0.011. As for AGTAACCAAG, the switch fluorescence ratio stood at 1.01 ± 0.037. With ATCTAGATTG, the switch fluorescence ratio was 0.982 ± 0.042. Next, ACGTAGTGTC: 1.03 ± 0.018; GGGTTTGTTA: 1 ± 0.018. As to AATATTACTA, the switch fluorescence ratio turned out to be 1.007 ± 0.0041. With GGTCCGGGCT, the switch fluorescence ratio is 1 ± 0.02. Next, TTTTATGTTC: 1.01 ± 0.018; TATTCCTCTG: 2.03 ± 0.26. Consider CTTGGTGGTG, for which the switch fluorescence ratio worked out at 0.995 ± 0.019.

For the sequence GGAATTATCG, the switch fluorescence ratio was determined as 0.98808 ± 0.00049. The figure for GCCGTTGGGG is 0.99 ± 0.031; for GTTATTGTTT it is 0.983 ± 0.041. With AGGGTAGAGC, the switch fluorescence ratio was 1.09 ± 0.15. On to CATAGGGGGG, for which the switch fluorescence ratio came to 0.988 ± 0.015. Next, TTTGGCTATT: 0.976 ± 0.028. For CCCAATCGGT, the switch fluorescence ratio came to 1.05 ± 0.027. On to AAAAAGGAGG, for which the switch fluorescence ratio is 1 ± 0.015. The figure for GATTGGAGTC is 1.008 ± 0.0045.

Take GGAACTTGTT: the switch fluorescence ratio stood at 0.99 ± 0.012.

For CCAAAAAGTG, the switch fluorescence ratio turned out to be 1.03 ± 0.031. On to GTTGTCAGGT, for which the switch fluorescence ratio was 1.001 ± 0.0018. Next, GGTTTTTAAT: 0.985 ± 0.031. The figure for TAAGTTGTTG is 0.993 ± 0.042.

Consider GAGGGCCGGG, for which the switch fluorescence ratio is 0.995 ± 0.068. The figure for AGGGTACTGC is 1.02 ± 0.039. In the case of GGGGAGCCGT, the switch fluorescence ratio was 1.03 ± 0.086.

Consider TTGTTAGATT, for which the switch fluorescence ratio was 0.994 ± 0.031. TATCAAAGAT: the switch fluorescence ratio came to 1 ± 0.02. Take TCTGGGAAGT: the switch fluorescence ratio amounted to 0.986 ± 0.011. As to GGTGTAGTTG, the switch fluorescence ratio was 0.999 ± 0.037. Next, CTGTTTATTT: 1.36 ± 0.54; TTAGAAGTTT: 1.01 ± 0.015. For AATGGGGGG, the switch fluorescence ratio stood at 0.986 ± 0.039. In the case of TGGTGGGTGT, the switch fluorescence ratio amounted to 0.987 ± 0.024. Consider CTATGCGGGA, for which the switch fluorescence ratio turned out to be 1.01 ± 0.04. Next, TTCGGGTAAT: 1.08 ± 0.11; GATTTGATTG: 1.002 ± 0.0033.

Consider CTGATCAGTT, for which the switch fluorescence ratio is 1.02 ± 0.017. With AGTGGGGATA, the switch fluorescence ratio was determined as 0.986 ± 0.039. Consider GCTGCAGATT, for which the switch fluorescence ratio is 0.988 ± 0.03.

For the sequence TGGGGTAGAG, the switch fluorescence ratio turned out to be 0.97 ± 0.041.

As to GACGCTAAGG, the switch fluorescence ratio turned out to be 1.094 ± 0.0069. Consider GAAGTCGGAT, for which the switch fluorescence ratio came to 0.979 ± 0.019. For TATTTTGGTC, the switch fluorescence ratio stood at 1.025 ± 0.0078. GAGCTGGGGA: the switch fluorescence ratio came to 0.983 ± 0.012.

As to TGGGGCGCCG, the switch fluorescence ratio came to 1.13 ± 0.18. GGGGGCAACT: the switch fluorescence ratio was determined as 0.997 ± 0.017. The figure for ATGGTGCCCC is 1.09 ± 0.049. On to CGGTTCGAGT, for which the switch fluorescence ratio worked out at 1.01 ± 0.035.

On to GATTGGGTCA, for which the switch fluorescence ratio amounted to 1 ± 0.012.

For TTAGCATGGG, the switch fluorescence ratio is 1.04 ± 0.037. On to ACTGGGGATT, for which the switch fluorescence ratio was 1.04 ± 0.036. The figure for AAAGGGAAAC is 1.2 ± 0.28; for GCGGGGCCCA it is 1.01 ± 0.013; for TTGATCTTAG it is 1.02 ± 0.018. Regarding ATTTGCTTGT, the switch fluorescence ratio is 1.01 ± 0.021. Consider TAAAATGCCG, for which the switch fluorescence ratio came out at 1.01 ± 0.061. As to TAATCAGGAA, the switch fluorescence ratio was found to be 1.015 ± 0.0046. Next, GGTGGGCGGA: 1.01 ± 0.029; GGGCGGCTGT: 1 ± 0.033; AAAAGGCGGT: 1.01 ± 0.012. Next, GGCAGAGCTG: 1.016 ± 0.01; CTAGTCGTAC: 1.03 ± 0.068; CCAAGGCTTT: 1.03 ± 0.026. As to GTGATCGGGT, the switch fluorescence ratio turned out to be 1.02 ± 0.015. The figure for GGGGGGTAAC is 1 ± 0.019; for GGGGACACGG it is 1.03 ± 0.016; for GGTCAAGCTC it is 1.02 ± 0.02. For TAGGATCCC, the switch fluorescence ratio amounted to 0.981 ± 0.026.

As to GCGGTTAAGG, the switch fluorescence ratio is 0.9577 ± 0.006. For the sequence TGGGAGTTGT, the switch fluorescence ratio stood at 0.989 ± 0.011. Consider GGAGCAGCTG, for which the switch fluorescence ratio came out at 0.97336 ± 0.00053.

For AATATTCGTT, the switch fluorescence ratio turned out to be 0.997 ± 0.039.
